Reference: US20170305981A1 (UNIVERSITY OF CHICAGO, published 2017)

Columns and labels:
[1] = target: lipoprotein lipase (LpL), SIGMA; assay: cell-based or functional assay
[2] = target: T1, hepatic lipase (HL) on hepatocyte (HepG2) cells (UniProt P11150 23-499, limits assumed); assay: cell-based or functional assay
T1 sequence (looked up): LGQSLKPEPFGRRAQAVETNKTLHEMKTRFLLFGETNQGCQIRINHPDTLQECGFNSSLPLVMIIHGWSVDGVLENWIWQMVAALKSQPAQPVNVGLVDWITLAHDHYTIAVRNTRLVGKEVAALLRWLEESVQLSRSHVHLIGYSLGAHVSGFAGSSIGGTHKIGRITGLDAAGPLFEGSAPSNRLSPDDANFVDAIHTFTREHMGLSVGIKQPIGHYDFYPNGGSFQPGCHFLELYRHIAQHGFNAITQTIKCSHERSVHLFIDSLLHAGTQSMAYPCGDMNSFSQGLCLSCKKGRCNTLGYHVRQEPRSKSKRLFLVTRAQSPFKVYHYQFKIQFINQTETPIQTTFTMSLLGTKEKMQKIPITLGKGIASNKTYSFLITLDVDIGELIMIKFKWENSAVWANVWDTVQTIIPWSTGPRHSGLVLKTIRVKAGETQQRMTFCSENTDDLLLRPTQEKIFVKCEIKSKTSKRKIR

Chain of lipoprotein lipase (LpL), SIGMA (P11151 29-478): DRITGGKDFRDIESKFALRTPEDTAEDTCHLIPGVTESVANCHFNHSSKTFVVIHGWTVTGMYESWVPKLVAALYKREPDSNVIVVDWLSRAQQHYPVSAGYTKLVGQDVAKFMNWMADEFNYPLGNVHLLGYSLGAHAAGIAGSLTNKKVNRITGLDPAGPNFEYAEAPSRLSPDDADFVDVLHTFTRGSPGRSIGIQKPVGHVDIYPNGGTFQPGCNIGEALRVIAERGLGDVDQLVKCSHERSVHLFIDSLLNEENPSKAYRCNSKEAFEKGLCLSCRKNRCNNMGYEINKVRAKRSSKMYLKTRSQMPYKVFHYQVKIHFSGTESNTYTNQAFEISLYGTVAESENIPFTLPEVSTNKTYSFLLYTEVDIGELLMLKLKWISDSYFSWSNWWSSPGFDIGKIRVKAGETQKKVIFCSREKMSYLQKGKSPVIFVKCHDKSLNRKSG

B1: AV-H/K (peptide)
peptide: ARLSRCVQVLSRKLTLKAKALKARIQQNLDQLRE
LpL activity in the absence of VLDL, 10 µM peptide [1]: ~1.6 fold
LpL activity in the presence of VLDL, 10 µM peptide [1]: ~8 fold
LpL activity in the presence of VLDL, relative to AV199-232 [1]: 44%

B2: AV-H/K-2F (peptide)
peptide: ARLSRCVQVFSRKLTLKAKALKARIQQNFDQLRE
lipase stimulating activity, peptide (80 µg/ml) preincubated with VLDL (20 µg/ml) [1]: ~2 fold

B3: AV199-237 (peptide)
peptide: ARLSRCVQVLSRKLTLKAKALHARIQQNLDQLREELSRA
hepatic lipase activity in cell culture [2]: ~3 fold
hepatic lipase activity in live hepatocytes, 10 µM peptide [2]: ~2.8 fold
